Assay results as given in publication PMC9684356.

T1: HLTF HIRAN domain (UniProt Q14527 51-171)
T1 sequence: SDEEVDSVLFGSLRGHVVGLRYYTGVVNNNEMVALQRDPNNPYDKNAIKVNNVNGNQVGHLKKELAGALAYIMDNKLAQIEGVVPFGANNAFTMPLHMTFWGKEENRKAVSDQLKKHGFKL

B1: 5'-FAM-A5 (ssDNA)
DNA: AAAAA
B2: 5'-FAM-TTTG (ssDNA)
DNA: TTTG
B3: 5'-FAM-GTTG (ssDNA)
DNA: GTTG
B4: 5'-FAM-TCC (ssDNA)
DNA: TCC
B5: 5'-FAM-TATAT (ssDNA)
DNA: TATAT
B6: 5'-FAM-ATATA (ssDNA)
DNA: ATATA
B7: 5'-FAM-TTG (ssDNA)
DNA: TTG
B8: 5'-FAM-ATG (ssDNA)
DNA: ATG
B9: 5'-FAM-CTG (ssDNA)
DNA: CTG
B10: 5'-FAM-GTG (ssDNA)
DNA: GTG
B11: 5'-FAM-T5 (ssDNA)
DNA: TTTTT
B12: T5 (ssDNA)
DNA: TTTTT
B13: TTT (ssDNA)
DNA: TTT
B14: GGG (ssDNA)
DNA: GGG
B15: TTG (ssDNA)
DNA: TTG
B16: TTA (ssDNA)
DNA: TTA
B17: TTC (ssDNA)
DNA: TTC
B18: TCT (ssDNA)
DNA: TCT
B19: TGT (ssDNA)
DNA: TGT
B20: TAT (ssDNA)
DNA: TAT
B21: ATG (ssDNA)
DNA: ATG
B22: CTG (ssDNA)
DNA: CTG
B23: GTG (ssDNA)
DNA: GTG
B24: CAG (ssDNA)
DNA: CAG
B25: TTTG (ssDNA)
DNA: TTTG
B26: ATTG (ssDNA)
DNA: ATTG
B27: CTTG (ssDNA)
DNA: CTTG
B28: GTTG (ssDNA)
DNA: GTTG
B29: GCC (ssDNA)
DNA: GCC
B30: TCC (ssDNA)
DNA: TCC
B31: CTT (ssDNA)
DNA: CTT
B32: CCT (ssDNA)
DNA: CCT
B33: GGT (ssDNA)
DNA: GGT
B34: TCG (ssDNA)
DNA: TCG
B35: CCG (ssDNA)
DNA: CCG

biological target: T1, HLTF HIRAN domain; test: fluorescence polarization

Row | Binder | Kd [nM]
1 | B1 | 160 ± 40
2 | B2 | 100 ± 20
3 | B3 | 220 ± 90
4 | B4 | 210 ± 70
5 | B5 | 250 ± 100
6 | B6 | 170 ± 60
7 | B7 | 30 ± 10
8 | B8 | 90 ± 10
9 | B9 | 60 ± 10
10 | B10 | 180 ± 10

biological target: T1, HLTF HIRAN domain; test: fluorescence polarization; remark: another data set of the same source

Row | Binder | Kd [nM]
11 | B11 | 140 ± 30

biological target: T1, HLTF HIRAN domain; test: competition

Row | Binder | IC50 [nM]
12 | B12 | 2400 ± 600
13 | B13 | 4300 ± 900
14 | B14 | 20200 ± 5100
15 | B15 | 2800 ± 500
16 | B16 | 4300 ± 400
17 | B17 | 13500 ± 600
18 | B18 | 6800 ± 700
19 | B19 | 15500 ± 900
20 | B20 | 34900 ± 9200
21 | B21 | 2900 ± 400
22 | B22 | 2500 ± 200
23 | B23 | 2200 ± 70
24 | B24 | 31700 ± 3900
25 | B25 | 2000 ± 200
26 | B26 | 1800 ± 200
27 | B27 | 1600 ± 200
28 | B28 | 1700 ± 100
29 | B29 | 31800 ± 8500
30 | B30 | 17100 ± 4800
31 | B31 | 10000 ± 1500
32 | B32 | 6900 ± 70
33 | B33 | 5400 ± 200
34 | B34 | 2900 ± 300
35 | B35 | 3600 ± 200
